Experimental findings from the supplement of paper PMC5998384 are described below.

In data set [1] the test system is HeLa Kyoto. In words: solubility in G1/S (NP-40 vs SDS abundance) (log2 ratio); higher = more soluble. The note with it: cell cycle stage: G1/S.
The test system of data set [2] is HeLa Kyoto. Description: melting temperature (median over replicates), in situ; higher = more thermally stable.
In data set [3] the test system is HeLa Kyoto. Description: solubility change mitosis vs G1/S (difference of NP-40 vs SDS log2 ratios) (log2 ratio difference); higher = more soluble in mitosis.
Data set [4] deals with HeLa Kyoto. Description: thermal stability score vs G1/S (z-score of summed log2 fold changes over temperatures); higher = more thermally stable than in G1/S.
The mark [5] stands for this setting: cell cycle stage: early G1 (4.5 h after nocodazole release).
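For melting temperature (median over replicates), in situ in this document: HeLa Kyoto cells synchronized by double thymidine or nocodazole block, proteins quantified by TMT10plex mass spectrometry, three independent biological replicates.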
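For solubility change mitosis vs G1/S (difference of NP-40 vs SDS log2 ratios) in this document: synchronized HeLa Kyoto cells (double thymidine block for G1/S, nocodazole release for mitosis), protein amounts in NP-40 versus SDS lysates quantified by mass spectrometry, three biological replicates.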
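For solubility in G1/S (NP-40 vs SDS abundance) in this document: HeLa Kyoto cells arrested at G1/S by double thymidine block, proteins quantified by TMT10plex mass spectrometry in mild NP-40 versus SDS extracts, three biological replicates.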
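For thermal stability score vs G1/S (z-score of summed log2 fold changes over temperatures) in this document: synchronized HeLa Kyoto cells, proteins quantified by TMT10plex mass spectrometry, three biological replicates, mitosis taken 0.5 h after nocodazole release, G1/S directly after double thymidine block.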

As for “MSLLMISENVKLAREYALLGNYDSAMVYYQGVLDQMNKYLYSVKDTYLQQKWQQVWQEINVEAKHVKDIMKTLESFKLDSTPLKAAQHDLPASEGEVWSMPVPVERRPSPGPRKRQSSQYSDPKSHGNRPSTTVRVHRSSAQNVHNDRGKAVRCREKKEQNKGREEKNKSPAAVTEPETNKFDSTGYDKDLVEALERDIISQNPNVRWDDIADLVEAKKLLKEAVVLPMWMPEFFKGIRRPWKGVLMVGPPGTGKTLLAKAVATECKTTFFNVSSSTLTSKYRGESEKLVRLLFEMARFYSPATIFIDEIDSICSRRGTSEEHEASRRVKAELLVQMDGVGGTSENDDPSKMVMVLAATNFPWDIDEALRRRLEKRIYIPLPSAKGREELLRISLRELELADDVDLASIAENMEGYSGADITNVCRDASLMAMRRRIEGLTPEEIRNLSKEEMHMPTTMEDFEMALKKVSKSVSAADIERYEKWIFEFGSC [KATNA1]”, in the data set with HeLa Kyoto [1], the “solubility in G1/S (log2)” value was determined as 0.0763. In addition, the results for the melting temperature with HeLa Kyoto [2] (cell cycle stage: G1/S) and in the data set on HeLa Kyoto [2] (cell cycle stage: mitosis) were 51.4 °C and 49.9 °C, respectively. Besides, in the data set with HeLa Kyoto [3], the “solubility change mitosis (log2)” value is -0.000211. In addition, the thermal stability score was 0.0753 in the data set with HeLa Kyoto [4] (setting [5]) and 0.484 in the data set on HeLa Kyoto [4] (cell cycle stage: mitosis).
Take “MSLLQSALDFLAGPGSLGGASGRDQSDFVGQTVELGELRLRVRRVLAEGGFAFVYEAQDVGSGREYALKRLLSNEEEKNRAIIQEVCFMKKLSGHPNIVQFCSAASIGKEESDTGQAEFLLLTELCKGQLVEFLKKMESRGPLSCDTVLKIFYQTCRAVQHMHRQKPPIIHRDLKVENLLLSNQGTIKLCDFGSATTISHYPDYSWSAQRRALVEEEITRNTTPMYRTPEIIDLYSNFPIGEKQDIWALGCILYLLCFRQHPFEDGAKLRIVNGKYSIPPHDTQYTVFHSLIRAMLQVNPEERLSIAEVVHQLQEIAAARNVNPKSPITELLEQNGGYGSATLSRGPPPPVGPAGSGYSGGLALAEYDQPYGGFLDILRGGTERLFTNLKDTSSKVIQSVANYAKGDLDISYITSRIAVMSFPAEGVESALKNNIEDVRLFLDSKHPGHYAVYNLSPRTYRPSRFHNRVSECGWAARRAPHLHTLYNICRNMHAWLRQDHKNVCVVHCMDGRAASAVAVCSFLCFCRLFSTAEAAVYMFSMKRCPPGIWPSHKRYIEYMCDMVAEEPITPHSKPILVRAVVMTPVPLFSKQRSGCRPFCEVYVGDERVASTSQEYDKMRDFKIEDGKAVIPLGVTVQGDVLIVIYHARSTLGGRLQAKMASMKMFQIQFHTGFVPRNATTVKFAKYDLDACDIQEKYPDLFQVNLEVEVEPRDRPSREAPPWENSSMRGLNPKILFSSREEQQDILSKFGKPELPRQPGSTAQYDAGAGSPEAEPTDSDSPPSSSADASRFLHTLDWQEEKEAETGAENASSKESESALMEDRDESEVSDEGGSPISSEGQEPRADPEPPGLAAGLVQQDLVFEVETPAVLPEPVPQEDGVDLLGLHSEVGAGPAVPPQACKAPSSNTDLLSCLLGPPEAASQGPPEDLLSEDPLLLASPAPPLSVQSTPRGGPPAAADPFGPLLPSSGNNSQPCSNPDLFGEFLNSDSVTVPPSFPSAHSAPPPSCSADFLHLGDLPGEPSKMTASSSNPDLLGGWAAWTETAASAVAPTPATEGPLFSPGGQPAPCGSQASWTKSQNPDPFADLGDLSSGLQGSPAGFPPGGFIPKTATTPKGSSSWQTSRPPAQGASWPPQAKPPPKACTQPRPNYASNFSVIGAREERGVRAPSFAQKPKVSENDFEDLLSNQGFSSRSDKKGPKTIAEMRKQDLAKDTDPLKLKLLDWIEGKERNIRALLSTLHTVLWDGESRWTPVGMADLVAPEQVKKHYRRAVLAVHPDKAAGQPYEQHAKMIFMELNDAWSEFENQGSRPLF”: the “solubility in G1/S (log2)” value with HeLa Kyoto [1] is -0.0682. The melting temperature with HeLa Kyoto [2] (cell cycle stage: G1/S) was 48.6 °C; with HeLa Kyoto [2] (cell cycle stage: mitosis) it was 48.9 °C. Besides, the “solubility change mitosis (log2)” value in the data set with HeLa Kyoto [3] is -0.151. Also, the thermal stability score in the data set on HeLa Kyoto [4] (setting [5]) was 0.76; in the data set on HeLa Kyoto [4] (cell cycle stage: mitosis), 1.62.
Turning to “MSLRKQTPSDFLKQIIGRPVVVKLNSGVDYRGVLACLDGYMNIALEQTEEYVNGQLKNKYGDAFIRGNNVLYISTQKRRM [LSM6]”, in the data set on HeLa Kyoto [1], the “solubility in G1/S (log2)” value is 0.0787. Moreover, the figures for the melting temperature in the data set with HeLa Kyoto [2] (cell cycle stage: G1/S) and in the data set with HeLa Kyoto [2] (cell cycle stage: mitosis) were 57.7 °C and 54 °C, respectively. In the data set on HeLa Kyoto [3], the “solubility change mitosis (log2)” value amounted to 0.276. The values for the thermal stability score in the data set with HeLa Kyoto [4] (setting [5]) and with HeLa Kyoto [4] (cell cycle stage: mitosis) were -1.66 and -2.63, respectively.
In the case of “MSLSENSVFAYESSVHSTNVLLSLNDQRKKDVLCDVTIFVEGQRFRAHRSVLAACSSYFHSRIVGQADGELNITLPEEVTVKGFEPLIQFAYTAKLILSKENVDEVCKCVEFLSVHNIEESCFQFLKFKFLDSTADQQECPRKKCFSSHCQKTDLKLSLLDQRDLETDEVEEFLENKNVQTPQCKLRRYQGNAKASPPLQDSASQTYESMCLEKDAALALPSLCPKYRKFQKAFGTDRVRTGESSVKDIHASVQPNERSENECLGGVPECRDLQVMLKCDESKLAMEPEETKKDPASQCPTEKSEVTPFPHNSSIDPHGLYSLSLLHTYDQYGDLNFAGMQNTTVLTEKPLSGTDVQEKTFGESQDLPLKSDLGTREDSSVASSDRSSVEREVAEHLAKGFWSDICSTDTPCQMQLSPAVAKDGSEQISQKRSECPWLGIRISESPEPGQRTFTTLSSVNCPFISTLSTEGCSSNLEIGNDDYVSEPQQEPCPYACVISLGDDSETDTEGDSESCSAREQECEVKLPFNAQRIISLSRNDFQSLLKMHKLTPEQLDCIHDIRRRSKNRIAAQRCRKRKLDCIQNLESEIEKLQSEKESLLKERDHILSTLGETKQNLTGLCQKVCKEAALSQEQIQILAKYSAADCPLSFLISEKDKSTPDGELALPSIFSLSDRPPAVLPPCARGNSEPGYARGQESQQMSTATSEQAGPAEQCRQSGGISDFCQQMTDKCTTDE [BACH1]”, in the data set with HeLa Kyoto [1], the “solubility in G1/S (log2)” value was -0.0438. The melting temperature came out at 53.6 °C in the data set with HeLa Kyoto [2] (cell cycle stage: G1/S) and 53.1 °C with HeLa Kyoto [2] (cell cycle stage: mitosis). Further, the “solubility change mitosis (log2)” value in the data set on HeLa Kyoto [3] stood at 0.0971. In addition, the thermal stability score in the data set on HeLa Kyoto [4] (setting [5]) was -0.135; with HeLa Kyoto [4] (cell cycle stage: mitosis), -2.84.
For “MSLSRSEEMHRLTENVYKTIMEQFNPSLRNFIAMGKNYEKALAGVTYAAKGYFDALVKMGELASESQGSKELGDVLFQMAEVHRQIQNQLEEMLKSFHNELLTQLEQKVELDSRYLSAALKKYQTEQRSKGDALDKCQAELKKLRKKSQGSKNPQKYSDKELQYIDAISNKQGELENYVSDGYKTALTEERRRFCFLVEKQCAVAKNSAAYHSKGKELLAQKLPLWQQACADPSKIPERAVQLMQQVASNGATLPSALSASKSNLVISDPIPGAKPLPVPPELAPFVGRMSAQESTPIMNGVTGPDGEDYSPWADRKAAQPKSLSPPQSQSKLSDSYSNTLPVRKSVTPKNSYATTENKTLPRSSSMAAGLERNGRMRVKAIFSHAAGDNSTLLSFKEGDLITLLVPEARDGWHYGESEKTKMRGWFPFSYTRVLDSDGSDRLHMSLQQGKSSSTGNLLDKDDLAIPPPDYGAASRAFPAQTASGFKQRPYSVAVPAFSQGLDDYGARSMSRNPFAHVQLKPTVTNDRCDLSAQGPEGREHGDGSARTLAGR [BAIAP2]”, in the data set with HeLa Kyoto [1], the “solubility in G1/S (log2)” value is 0.466. Besides, the melting temperature in the data set with HeLa Kyoto [2] (cell cycle stage: G1/S) was 50.6 °C; with HeLa Kyoto [2] (cell cycle stage: mitosis) it was 51.2 °C. Moreover, in the data set on HeLa Kyoto [3], the “solubility change mitosis (log2)” value is 0.0657. Also, the thermal stability score was determined as 0.524 in the data set with HeLa Kyoto [4] (setting [5]) and 0.515 in the data set with HeLa Kyoto [4] (cell cycle stage: mitosis).
